The text below walks through data of US20180022794A1 (INSERM INSTITUT NATIONAL DE LA SANTE ET DE LA RECHERCHE …, published 2018).

Holding throughout (assay): binding kinetics, method not stated (Table 1)
One test deals with T1, RhoA Q63L (UniProt P61586 1-190, limits assumed).
T1 construct: also called RhoA Q63L (2SHA); constitutively active RhoA mutant

In a further test the target is T2, RhoB Q63L (UniProt P62745 1-193, limits assumed).
T2 construct: also called RhoB Q63L (2SHA); constitutively active RhoB mutant

A further test addresses T3, RhoC Q63L (UniProt P08134 1-190, limits assumed).
T3 construct: also called RhoC Q63L (2SHA); constitutively active RhoC mutant

Another test concerns the target Rac Q61L (UniProt P63000 1-189).

T2 sequence (P62745 1-193 Q63L limits assumed): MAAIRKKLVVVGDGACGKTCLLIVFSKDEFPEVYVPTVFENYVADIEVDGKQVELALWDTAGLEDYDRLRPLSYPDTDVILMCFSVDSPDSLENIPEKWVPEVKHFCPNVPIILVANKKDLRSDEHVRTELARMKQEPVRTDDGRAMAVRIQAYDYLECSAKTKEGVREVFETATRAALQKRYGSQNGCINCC
T1 sequence (P61586 1-190 Q63L limits assumed): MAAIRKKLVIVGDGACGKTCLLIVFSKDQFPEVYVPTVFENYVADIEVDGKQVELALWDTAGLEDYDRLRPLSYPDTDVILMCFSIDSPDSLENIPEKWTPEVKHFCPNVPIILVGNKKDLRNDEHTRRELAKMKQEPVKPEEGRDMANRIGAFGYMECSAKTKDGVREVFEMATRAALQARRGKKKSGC
T3 sequence (P08134 1-190 Q63L limits assumed): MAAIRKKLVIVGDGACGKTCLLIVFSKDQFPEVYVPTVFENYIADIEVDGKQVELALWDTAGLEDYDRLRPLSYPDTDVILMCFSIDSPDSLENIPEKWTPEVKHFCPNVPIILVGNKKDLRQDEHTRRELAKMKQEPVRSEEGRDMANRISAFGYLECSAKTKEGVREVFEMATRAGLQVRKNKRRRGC

B1: 5SNP48 hs2dAb (VHH)
VHH: VQLQASGGGFVQPGGSLRLSCAASGTSWFTEVMGWFRQAPGKEREFVSAISGLHDVGTYYADSVKGRFTISRDNSKNTVYLQMNSLRAEDTATYYCAALDKWYTKAMDARKDYWGQGTQVTVSS
For the molecule B1, in the test with RhoA Q63L, the Kd was 0.84 nM, the koff stood at 0.000686 s⁻¹ and the kon was found to be 814000 M⁻¹ s⁻¹. Besides, in the test with RhoB Q63L, the dissociation constant (Kd) stood at 5.21 nM, the off-rate constant (koff) was determined as 0.0024 s⁻¹ and the association rate constant (kon) came to 462000 M⁻¹ s⁻¹. In the test with RhoC Q63L, this molecule returned an equilibrium dissociation constant (Kd) of 0.524 nM, a koff of 0.000901 s⁻¹ and a kon of 1.72e+06 M⁻¹ s⁻¹.

B2: B6 hs2dAb (VHH)
VHH: VQLQASGGGFVQPGGSLRLSCAASGYGSTIETMGWFRQAPGKEREFVSAISRAPGPSQYYADSVKGRFTISRDNSKNTVYLQMNSLRAEDTATYYCAPINNRTMQDSMFLWNYWGQGTQVTVSS
notes: also called hs2dAb B6
For the molecule B2, in the test with RhoA Q63L, the equilibrium dissociation constant (Kd) came out at 1.31 nM, the dissociation rate constant (koff) came to 0.0008 s⁻¹ and the association rate constant (kon) was 1.05e+06 M⁻¹ s⁻¹. In the test with RhoC Q63L, the affinity, expressed as Kd, was 2.32 nM; the koff is 0.000625 s⁻¹; the kon was 1.45e+06 M⁻¹ s⁻¹.

B3: 5SNP65 hs2dAb (VHH)
VHH: VQLQASGGGFVQPGGSLRLSCAASGATYEGEAMGWFRQAPGKEREFVSAISSYPSVISYYADSVKGRFTISRDNSKNTVYLQMNSLRAEDTATYYCAYWVNHEGTIREIYWGQGTQVTVSS
In the test with RhoA Q63L, B3 gave a dissociation constant Kd of 0.6 nM, a dissociation rate constant (koff) of 0.000522 s⁻¹ and an association rate constant (kon) of 870000 M⁻¹ s⁻¹. In the test with RhoB Q63L, this molecule returned a dissociation constant (Kd) of 2.36 nM, a koff of 0.000599 s⁻¹ and a kon of 253000 M⁻¹ s⁻¹. In the test with RhoC Q63L, this molecule registered a Kd of 0.608 nM, a dissociation rate constant (koff) of 0.001 s⁻¹ and a kon of 1.71e+06 M⁻¹ s⁻¹.

B4: 4SNP61 hs2dAb (VHH)
VHH: VQLQASGGGFVQPGGSLRLSCAASGFTSTSTVMGWFRQAPGKEREFVSAISSAHTMDTYYADSVKGRFTISRDNSKNTVYLQMNSLRAEDTATYYCAPAPMLGQMITQPALPYWGQGTQVTVSS
As to B4, the Kd with RhoA Q63L worked out at 1.21 nM; in the test with RhoB Q63L, 4.68 nM; with RhoC Q63L, 5.3 nM. The koff was 0.0013 s⁻¹ with RhoA Q63L, 0.0033 s⁻¹ with RhoB Q63L and 0.0046 s⁻¹ with RhoC Q63L. The results for the kon with RhoA Q63L, in the test with RhoB Q63L and with RhoC Q63L were 1.1e+06 M⁻¹ s⁻¹, 722000 M⁻¹ s⁻¹ and 875000 M⁻¹ s⁻¹, respectively.

B5: H12 hs2dAb (VHH)
VHH: VQLQASGGGFVQPGGSLRLSCAASGDGSRIYAMGWFRQAPGKEREFVSAISWEQDWEHYYADSVKGRFTISRDNSKNTVYLQMNSLRAEDTATYYCAAFMTPHRNLTSMYWGQGTQVTVSS
notes: Humanized synthetic single domain antibody; Soluble form was used in ELISA and immunofluorescence and detected through a myc tag; also called clone H12; H12 antibody
In the test with RhoB Q63L, B5 registered a dissociation constant (Kd) of 1.57 nM, a koff of 0.000359 s⁻¹ and an on-rate (kon) of 224000 M⁻¹ s⁻¹. In addition, in the test with Rac Q61L, the affinity, expressed as Kd, was 0.33 nM; the koff was 0.000255 s⁻¹; the association rate constant (kon) was found to be 753000 M⁻¹ s⁻¹.

In general, Kd refers to the equilibrium constant for the complex coming apart. A higher Kd goes with weaker binding. For orientation: koff means the first-order rate constant of dissociation. As usually defined, the kon is the second-order rate constant of association. Read a low kon as slow association.
